{
  "source": "the RNAGym collection of RNA variant scans (doi:10.1021/acssynbio.7b00057)",
  "parents": {"B1": {"name": "Pistol ribozyme (parent)", "chain": "GGGUCGUUGUUCCAUAAUCGCGUGGAUAUGGCACGCAAGUUUCUACCGGGCACCGUAAAUGUCCGACUGGAGCCGUUCGGGCGGCUAUAAACAGACCUCAGGCCCGAAGCGUGGCGGCACCUGCCGCCGGUGGUAAAAAAGAUCGGAAGAGCACACGUCU"}},
  "data": [
    {"variants_of": "B1", "test": "aptazyme ON/OFF ratio, guanine; higher = stronger switching; co-transcriptional cleavage with and without guanine", "values": [
      {"variant": "U7C U8G G9C U10C", "aptazyme ON/OFF ratio": 3.58},
      {"variant": "U7C U8G G9C U10A", "aptazyme ON/OFF ratio": 1.28},
      {"variant": "U7C U8G G9C U10G", "aptazyme ON/OFF ratio": 1.47},
      {"variant": "U7C U8G G9C U10C U11C C12A", "aptazyme ON/OFF ratio": 1.04},
      {"variant": "U7C U8G G9C U10C U11C C12U", "aptazyme ON/OFF ratio": 1.04},
      {"variant": "U7C U8G G9C U10C U11C C12G", "aptazyme ON/OFF ratio": 1.05},
      {"variant": "U7C U8G G9C U10C U11A C12U C13G", "aptazyme ON/OFF ratio": 1.21},
      {"variant": "U7C U8G G9C U10C U11A C12U C13A", "aptazyme ON/OFF ratio": 1.08},
      {"variant": "U7C U8G G9C U10C U11A C12U C13U", "aptazyme ON/OFF ratio": 1.08},
      {"variant": "U7C U8G G9C U10G U11G C12U", "aptazyme ON/OFF ratio": 1.29},
      {"variant": "U7C U8G G9C U10G U11G C12A", "aptazyme ON/OFF ratio": 1.18},
      {"variant": "U7C U8G G9C U10G U11G C12G", "aptazyme ON/OFF ratio": 1.13},
      {"variant": "U7C U8G G9C U10G U11C C12G", "aptazyme ON/OFF ratio": 1.25},
      {"variant": "U7C U8G G9C U10G U11C C12A", "aptazyme ON/OFF ratio": 1.24},
      {"variant": "U7C U8G G9C U10G U11C C12U", "aptazyme ON/OFF ratio": 1.07},
      {"variant": "U7C U8G G9C U11G C12A", "aptazyme ON/OFF ratio": 1.12},
      {"variant": "U7C U8G G9C U11G C12G", "aptazyme ON/OFF ratio": 1.19},
      {"variant": "U7C U8G G9C U11G C12U", "aptazyme ON/OFF ratio": 1.23},
      {"variant": "U7C U8G G9C U10G C12G C13G", "aptazyme ON/OFF ratio": 1.12},
      {"variant": "U7C U8G G9C U10G C12G C13A", "aptazyme ON/OFF ratio": 1.18},
      {"variant": "U7C U8G G9C U10G C12G C13U", "aptazyme ON/OFF ratio": 1.13},
      {"variant": "U7C U8G G9C U11A C12A C13A", "aptazyme ON/OFF ratio": 1.15},
      {"variant": "U7C U8G G9C U11A C12A C13G", "aptazyme ON/OFF ratio": 1.11},
      {"variant": "U7C U8G G9C U11A C12A C13U", "aptazyme ON/OFF ratio": 1.22},
      {"variant": "U7C U8G G9A U11G C12A C13A", "aptazyme ON/OFF ratio": 1.17},
      {"variant": "U7C U8G G9A U11G C12A C13U", "aptazyme ON/OFF ratio": 1.19},
      {"variant": "U7C U8G G9A U11G C12A C13G", "aptazyme ON/OFF ratio": 1.17},
      {"variant": "U7C U8G G9C U10A C12A C13A", "aptazyme ON/OFF ratio": 1.22},
      {"variant": "U7C U8G G9C U10A C12A C13U", "aptazyme ON/OFF ratio": 1.18},
      {"variant": "U7C U8G G9C U10A C12A C13G", "aptazyme ON/OFF ratio": 1.1},
      {"variant": "U7C U8G G9C U10A U11G C12U C13G", "aptazyme ON/OFF ratio": 1.12},
      {"variant": "U7C U8G G9C U10A U11G C12U C13A", "aptazyme ON/OFF ratio": 1.16},
      {"variant": "U7C U8G G9C U10A U11G C12U C13U", "aptazyme ON/OFF ratio": 1.18},
      {"variant": "U7C U8G G9A U11C C12U", "aptazyme ON/OFF ratio": 1.11},
      {"variant": "U7C U8G G9A U11C C12A", "aptazyme ON/OFF ratio": 1.1},
      {"variant": "U7C U8G G9A U11C C12G", "aptazyme ON/OFF ratio": 1.11},
      {"variant": "U7C U8G G9C U10A U11G C12A C13A", "aptazyme ON/OFF ratio": 1.08},
      {"variant": "U7C U8G G9C U10A U11G C12A C13U", "aptazyme ON/OFF ratio": 1.18},
      {"variant": "U7C U8G G9C U10A U11G C12A C13G", "aptazyme ON/OFF ratio": 1.19},
      {"variant": "U7C U8G G9A U11G C12G", "aptazyme ON/OFF ratio": 1.23},
      {"variant": "U7C U8G G9A U11G C12U", "aptazyme ON/OFF ratio": 1.26},
      {"variant": "U7C U8G G9A U11G C12A", "aptazyme ON/OFF ratio": 1.09},
      {"variant": "U7C U8G G9C U10A C13U", "aptazyme ON/OFF ratio": 1.15},
      {"variant": "U7C U8G G9C U10A C13G", "aptazyme ON/OFF ratio": 1.08},
      {"variant": "U7C U8G G9C U10A C13A", "aptazyme ON/OFF ratio": 1.14},
      {"variant": "U7C U8G G9C U10G U11G C12G C13A", "aptazyme ON/OFF ratio": 1.1},
      {"variant": "U7C U8G G9C U10G U11G C12G C13U", "aptazyme ON/OFF ratio": 1.15},
      {"variant": "U7C U8G G9C U10G U11G C12G C13G", "aptazyme ON/OFF ratio": 1.09},
      {"variant": "U7C U8G G9A U11A C12G C13A", "aptazyme ON/OFF ratio": 1.12},
      {"variant": "U7C U8G G9A U11A C12G C13U", "aptazyme ON/OFF ratio": 1.08},
      {"variant": "U7C U8G G9A U11A C12G C13G", "aptazyme ON/OFF ratio": 1.11},
      {"variant": "U7C U8G G9C U10G C12A C13A", "aptazyme ON/OFF ratio": 1.16},
      {"variant": "U7C U8G G9C U10G C12A C13U", "aptazyme ON/OFF ratio": 1.26},
      {"variant": "U7C U8G G9C U10G C12A C13G", "aptazyme ON/OFF ratio": 1.09},
      {"variant": "U7C U8G G9C U11C C12A C13G", "aptazyme ON/OFF ratio": 1.09},
      {"variant": "U7C U8G G9C U11C C12A C13A", "aptazyme ON/OFF ratio": 1.12},
      {"variant": "U7C U8G G9C U11C C12A C13U", "aptazyme ON/OFF ratio": 2.13},
      {"variant": "U7C U8G G9A U11C C12G C13U", "aptazyme ON/OFF ratio": 1.1},
      {"variant": "U7C U8G G9A U11C C12G C13G", "aptazyme ON/OFF ratio": 1.17},
      {"variant": "U7C U8G G9A U11C C12G C13A", "aptazyme ON/OFF ratio": 1.05},
      {"variant": "U7C U8G G9C U11C C12U C13A", "aptazyme ON/OFF ratio": 1.15},
      {"variant": "U7C U8G G9C U11C C12U C13U", "aptazyme ON/OFF ratio": 1.07},
      {"variant": "U7C U8G G9C U11C C12U C13G", "aptazyme ON/OFF ratio": 1.07},
      {"variant": "U7C U8G G9C U10G U11G C12U C13U", "aptazyme ON/OFF ratio": 1.11},
      {"variant": "U7C U8G G9C U10G U11G C12U C13G", "aptazyme ON/OFF ratio": 1.09},
      {"variant": "U7C U8G G9C U10G U11G C12U C13A", "aptazyme ON/OFF ratio": 1.06},
      {"variant": "U7C U8G G9C U10C U11C C12A C13A", "aptazyme ON/OFF ratio": 1.03},
      {"variant": "U7C U8G G9C U10C U11C C12A C13U", "aptazyme ON/OFF ratio": 1.02},
      {"variant": "U7C U8G G9C U10C U11C C12A C13G", "aptazyme ON/OFF ratio": 1.04},
      {"variant": "U7C U8G G9C U10A U11C C12A C13A", "aptazyme ON/OFF ratio": 1.19},
      {"variant": "U7C U8G G9C U10A U11C C12A C13G", "aptazyme ON/OFF ratio": 1.11},
      {"variant": "U7C U8G G9C U10A U11C C12A C13U", "aptazyme ON/OFF ratio": 1.17},
      {"variant": "U7C U8G G9A U11C C12A C13U", "aptazyme ON/OFF ratio": 1.14},
      {"variant": "U7C U8G G9A U11C C12A C13G", "aptazyme ON/OFF ratio": 1.12},
      {"variant": "U7C U8G G9A U11C C12A C13A", "aptazyme ON/OFF ratio": 1.1},
      {"variant": "U7C U8G G9C U11C C12U", "aptazyme ON/OFF ratio": 1.33},
      {"variant": "U7C U8G G9C U11C C12G", "aptazyme ON/OFF ratio": 1.67},
      {"variant": "U7C U8G G9C U11C C12A", "aptazyme ON/OFF ratio": 2.71},
      {"variant": "U7C U8G G9C U10G U11A C12A", "aptazyme ON/OFF ratio": 1.34},
      {"variant": "U7C U8G G9C U10G U11A C12U", "aptazyme ON/OFF ratio": 1.24},
      {"variant": "U7C U8G G9C U10G U11A C12G", "aptazyme ON/OFF ratio": 1.24},
      {"variant": "U7C U8G G9C U10A U11C C12U", "aptazyme ON/OFF ratio": 1.05},
      {"variant": "U7C U8G G9C U10A U11C C12G", "aptazyme ON/OFF ratio": 1.15}
    ]}
  ]
}
